# Measurements published in the nanobody polyreactivity screen of Harvey et al. (2022).
# Experiment: yeast display, Sf9 membrane polyspecificity reagent, FACS + sequencing; frameworks hold sequencing errors
# Method in brief: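 Nanobodies came from a synthetic yeast display library in Saccharomyces cerevisiae BJ5465, induced with galactose for 36–48 hours and stained for 1 hour at 4 °C with 10% biotinylated, detergent-solubilized Sf9 membrane reagent. Cells were enriched on streptavidin microbeads and then FACS-sorted, with low and high (top ~1%) gates set on anti-HA fluorescence for expression and streptavidin fluorescence for reagent binding. Each polyreactivity label reflects the gate a clone came from. Genes were amplified by colony PCR, sequenced by MiSeq 2 × 250 and filtered by CDR length.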
row,Sequence,polyreactivity (PSR sort gate)
1,QVQLVESGGGLVQAGGSLRLSCAASGRTYPGYSMGWYRQAPGKERELVAAITRGSTNYADSVKGRFTISRDNAKNTVYLQMNSLKPEYTAVYYCATRGYYYWTHYDYWGHGTQVTVSS,low polyreactivity
2,QVQLVESGGGLVQAGGSLRLICAASGRTFRFYTMGWYRQAPGKERELVAGIRQRGGTTYYADSVKGRFTISRDNAKNTVYLQMNSLKPEDTAVYYCAADVYYPFYSPGFDYWGQGTQVTVSS,high polyreactivity
3,QVHLVESGGGLVQAGGSLRLSCAASGSIFRKYAMGWYRQAPGKERELLAAISVSGGSTYYADSVKGRFTISRDNAKNTVYLQMNSLNPEDTAVYYCAADSGPFNRYAPRGYWGQGTQVTVSS,low polyreactivity
4,QVQLEESAGGLVQAGGSLRLSCAASGRIFVRNAMGWYRQAPGKERELVADITNGGSTNYADSVKGRFTISRDNAKNTVYLQMNSLKPEDTAVYYCAATYPYSWVYSGYYYWGHGTQVTVSS,low polyreactivity
5,QVQLVESGGGLVQAGGSLRLSCAASGYIFWSNTMGWYRQAPGKERELVAAISQSTASTYYADSVKGRFTISRDNAKNTVYLQMNSLKPEDTAVYYCAAYYNFGDYEYDYWGQGTQVTVSS,low polyreactivity
6,QVQLVESGGGLVQAGGSIRLSCAPSGRTFRYYAMGWYRQAPGKERELVAAISRSGGSTYYADSVKGRFTISRDNAKNTVYLQMNSLKPEVTAVYYCADRYYVPWFGPSKYTPYDYWGQGIQVTVSS,high polyreactivity
7,QVQLVESGGGLVQAGGSLRLSCAASGRIFHIYAMGWYRPAPGKERELVAAIRSSGGSTYYADSVKGRFTISRDNAMNTVYLQMNSLKPEDTAVYYCNKYVAYDYWGQGTQVTVSS,low polyreactivity
8,QVQLVESGGGLVQAGGRLRLSCAASGRTFVQYAIAWYRQAPGKEREFVAAISSRVGSTYYADSVKGRFTISRDNAKNTVYLQMNSLKPEDTAVYYCNRDLVPRFDYWGQGTQVTVSS,low polyreactivity
9,QVQQQESGGGLVQVGGSQRLSCAASGNIFYNYAMGWYRHAQGKEREFDATINHGTSINYADSVKGRFTISRDNAKNTVYLQMNSLKPEDTAVYYCAADLSWTDNLFYWGQGTQVTVSS,low polyreactivity
10,QVQLVESGGGLVQAGGSLRLSCAASGIIFRDNAMGWYRQAPGTERELVAAIDSSGGTTYADSVKGRFTISRDNAKNTVYLQMNSLKPEDTAVYYCATEVYSTVSYYGYDYYGRNYYYWGQGPQVTVSS,low polyreactivity
11,QVQLVESGGGLVQAGGSLRLSCAASGSIFKLNAMGWYRQAPGKERELVAAISRGGRTYYADSVKGRFTISRDNAKNTVYLQMNSLKPEDTAVYYCAADASSQIWYYPRDDYWGQGTNVTVSS,low polyreactivity
12,QVQLVESRRGLVQAGGSLRLSCASSGFTVCWYAMGLYRPAPGTERELVAAISSGGSTNYADSVKGRFTISRDNAKNTVYFQMNSLKPEDTAVYYCARRLWYSDRYSARWQYDYWGQGTQVTVSS,high polyreactivity
13,QDQLVESGGGFVQAGGSLRLSCAASGFIFVTYAMGWFRQAPGKERELVAAITWSTTSTYYADSVKGRFTISRDNAKNTVYLQMNSLKPDETAVYSCAKYYFQYKHDYWGQGTQVTVSS,low polyreactivity
14,QVQLVESGGGLVQAGGSLRLSCAASGSTSAAYAMGWYRQAPGKERELVAAISKRGGSTYYADSVKGRFTISRDNAKNTVYLQMNSLKPEDTAVYYCNKYHFPGYWSRFDYWGQGTQVTVSS,high polyreactivity
15,QVQVVESGGGLVQAGGSLRLSCAASGFISSYYAMGWYRQAPGKERELVAAITSGGRTYYADSVKGRFTISRDNAKNTVYLQMNSLKPEDTAVYYCAKYSRTKAFDYWGQGTQVTVSS,high polyreactivity
16,QVQLVESGGGLVQAGGSLRLTCAASGSTSPANTMGWYRQAPGKETEFVAGISRRGGRTYYADSVKGRFTISRDNAKNTVYLQMNSLKPEDTAVFYCATALIVRCPSRYEYWGQGTQVTVSS,high polyreactivity
17,QVQLVESGGGLVQAGGSLRLSCAPSGNIFYINTMGWYRPAPGKERELVAAIDASDGSTYYADSVKGRFTISRDNAKNTVYLQMNSLKPEDTAVYYCATRRGYDSVYYLYTLWYYYWGQGTQVTVSS,low polyreactivity
18,QVQLVESGGGLVQAGGSLRLSCAASGFTFTKYDMGWYRQAPGKERELVAVITWSGGSTYYADSVKGRFTISRDNAKNTVYLQMNSLKPEDTAVYYCNDEAPRYTYGRMDYWGQGTQVTVSS,low polyreactivity
19,QVQLVETGGGLVQAGGSLSLSCAASGSTFAYYAMGWYRQAPGKERELVAGITWTGGSTYYADSVKGRFTISRDNAKNTVYLQMNSLKPEDTAVYYCAVTYPYGYEYDHWGQGTQVTVSS,low polyreactivity
20,QVQLVESGGGIVQAGGSLRLSCAASGSILSTYAMGWYRQAPGKERELVDSISSNAGSTYYSDSVKGRFTISRDNAKNTVYLQMNSLKPEDSAVYYCNKVYGGGTYDYWGQGTQVTVSS,low polyreactivity
21,QVQLVETGGGLVQAGGSLRLSCAASGSTIYLYAAMGLYRQAPGKESELVAAISGSGGSTFYADSVKGRFTISRDNAKNTVYLQMNSLKPEDTAVYYCAADKRYPYETYRPSVSASDSWGQGTQVTVSS,low polyreactivity

row,Sequence,polyreactivity (PSR sort gate)
1,QVQLVESGGGLVQAGGSLRLSCAASGLTLETNAMGWYRQAPGKERELVAGITYSGGTTYYADSVKGRFTISRDNAKNSVYLQINSLKPDDTAVYDCNAGPLRSGRYTYYYWGQGTQVTVSS,low polyreactivity
2,QVQLVESGGGLVQAGGSLRLSCASSGSIFGAYAMGWYRQAPGKERELVAAITSVGSTYYADSVKGRFTISRDNAKNTVYVQMNSLIPEDTAVYYCAKRQWRPTYRYGYWGQGTQVTVSS,low polyreactivity
3,QVQLVESGGGLVQAGGSLRLSCAASGRIFSRYTMGWYRQAPGKERELVAGITRGGGSTYYADSVKGRFTISRDNAKNTVYLQMNSLKPEDNAVYYCNAETSYAWWHYDYWGQGTQVTVSS,low polyreactivity
4,QVQLVESGGGLVQAGGRLRISSAASGRIFAYYAMGWYRQAPGKERELVAANTTNGGGTYYADSVKGRFTISRDNAKNTVSLQMNSLNPEDPAFYYCATQFEGPAGFNNWGQGTQVTVSS,low polyreactivity
5,QVQLVESGGGLVQAGGSLRVSCAASGSTFILNAMGWYRQAPGKERELVATISSSDTSTYYADSVKGRFTISRDHAKNTVYLQMNSMKPEDTAVYYCNADYYTTAYLQRVYHYGVEYDYWGQVTQVTVSS,low polyreactivity
6,QVQLVESGGGLVQAGGSLRLSCAASGSIFNYYAMGWYRQAPGQERELVASISRGGSTNYADSVKGRFTISRDNAKNTVYLQMNSLKPEDTAVYYCNAEGWPGNVVYGYYYWGQGTQVTVSS,low polyreactivity
7,QVQLEESGGGLVQAGGSLRLSCAAYGSIFYKNAMGWYRQAPGKERELVAAITYSGGSTYYADSVKGRFTISRDNAKKTVYLQMNSLKPEDTAVYYCAADIGVYGERREEEYDYWGQGTQVTVSS,low polyreactivity
8,QVQLVESGGGLVQAGGSLRLSCAASGRTFSGNAMGWYRQAPGKEREMVAAITGRGGTTYYADSVKGRFTISRDNAKKTVFLQMNSLKPEDTAVYYCAADTKLSYQWFDYWGQGTQVTVSS,high polyreactivity
9,QVQLVESGGGLVQAGGSLRLSCAASGSTFYGYAMGWYRQAPGKDRELVAAISSGGRTNYADSVKGRFTISRDNAKNTVYLQLHSLKPEDTAVYYCNARRIYGWWEFDYWGQGTQVTVSS,low polyreactivity
10,QVQLVESGGGLVQAGGSLRLSCAASGRIFSAYAMGWYRPAPGKERELVAAISKRGGRTYYADSVKGRFTISRDNAKNTVYLQMNSLKPEDTAVYYCNKRYHDGHELDYWGQGTQVTVSS,high polyreactivity
11,QVQLVESGGVLVQAAGSLRLSCAASGRIFGYNAMGWYRQAPGSERDFVAAISPSGGSTYYADSLKGLFTISRDNAKITVYLQMNSLKPEDTGVYYCAARIGYRSWAWDAYEYWGQGTQVTVSS,low polyreactivity
12,QVQLVESGGGIVQAGGSLRLSCAASGGTFTRYAMGWYRQAPGKEREFVAAISGSGGSTYYADSVKGRFTISRDNAKNTVYLQMNSLKPVDTAVYYCNKVPVYPPSYYWGQGTQVTVSS,low polyreactivity
13,QVQLVESGGGLVQAGGSLRLSCAASGSIFYRITMGWYRQAPGKERELVAAISTNGGSTYYADSVKGRFTISRDNAKNSVYLQMNSLKPEDTAVYYCAADLRRSDYDYWGQGTQVTVSS,high polyreactivity
14,QVQLVESGGGLVQAGGSLRLSCASSGSTFPPYAMGWYRQAPGKERELVAAISYRDTGTYYADSVKGRFTISRDNAKNTVYFQMNSLKPEDTAVYYCAADYHIVYYFLYYYWGQGTQVTVSS,low polyreactivity
15,QVQLVESGGGLVQAGGCLRISCAASGSIFPFYVMGRYRQAPGKERELVAAITRSGGSTYYADSVKGRFTISRDNAKNTVYLQMNSLKPEDTAVYYCAKRPHHGSTKYNYWGQGTQVTVSS,low polyreactivity
16,QVQLVESGGGLDQAGGSLRLSCAASGRTFGKYAMGWYRQAPGKERELVAAITGGGGTKYADSVKGRFTISRDNAKNTFYLQMNSLKPEDTAVYYCAAASGSRRHGFWGQGTQVTVSS,high polyreactivity
17,QVQHVESGGGLVQAGGSLRLSCAASGSTFGYNDMGRYRQAPGKERELVAAIDTGVSTNYADSVKGRFTISRDNAKNTVYLQMNSLKPEDTAVYYCAKSGSAYWHSGWSVGFDYWGQGTQVTVSS,low polyreactivity
18,QVQLVESGGGLVQAGGSLRLSCAASGLTFTKYAMGWYRQAPGKERELVAAINRRGGSTYYADSVKGRFTISRDNAKNTVYLQMNSLKPEDTAVYYCAKRKSVRSTPSYEYWGQGTQVTVSS,high polyreactivity
19,QVQLVESGGGLVQAGGILRLSCAASGFIFNSYAMGWYRQAPGKERELVAAITKSGGRTYYADSVKGRFTISRDNEKNTVYFQMNSLKPEDTAVYYCAARAYRSSVYRGDYWGQGTQVTVSS,high polyreactivity
20,QVQLVESGGALVHAGGSLRLSCAASGSILKTYAMGWYIQAPGKEREFVAAMSSGGSTYYADSVKGRFTISRDNAKNTVYLQMNSLKPEDTAVYYCAADPWGDFVSFASYYYWGQGTQVTVSS,low polyreactivity
